Drawing on PMC4059916 (2014), this text covers Kd for three molecules.

To fix the notation:
T1: Rab32 1-225 (Q85L), GTP hydrolysis-defective mutant, GST removed (UniProt Q13637 1-225, Q85L)
T1 sequence: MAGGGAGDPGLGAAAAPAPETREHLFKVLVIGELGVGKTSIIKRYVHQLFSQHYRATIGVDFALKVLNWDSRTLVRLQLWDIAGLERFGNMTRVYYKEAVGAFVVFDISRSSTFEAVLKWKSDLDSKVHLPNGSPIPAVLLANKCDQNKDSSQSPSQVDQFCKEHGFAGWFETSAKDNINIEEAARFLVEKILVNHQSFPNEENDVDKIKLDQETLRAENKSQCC

B1: VARP451-640His6 Q509A/Y550A (domain or fragment)
chain: PSVVTPFSRDDRGHTPLHVAAVCGQASLIDLLVSKGAMVNATDYHGATPLHLACQKGYASVTLLLLHYKASAEVQDNNGNTPLHLACTYGHEDCVKALVAYDVESCRLDIGNEKGDTPLHIAARWGYQGVIETLLQNGASTEIQNRLKETPLKCALNSKILSVMEAYHLSFERRQKSSEAPVQSPQRSVD
B2: VARP451-640His6 (first ankyrin repeat domain, ANKRD1), wild type (domain or fragment)
chain: B1 chain with A59Q, A100Y
B3: Rab32 (Q85L/G89T/N90S/V94L) (protein)
chain: T1 sequence with G89T, N90S, V94L
modifications: Construct limits taken from the parent Rab32 1-225 (PDB 4CYM entity 1); Mg2+ and GTP-analogue state (GppCp or GTPgammaS) presumed

What all share (assay): ITC
(Isothermal titration calorimetry measures the heat released or taken up as one component is titrated into another.)

Assay [1] addresses T1, Rab32 1-225 (Q85L), GTP ….
Assay [2] addresses Rab32(Q85L) mutated at M91/R93 (Switch-II), GST removed, as used in ITC (UniProt Q13637 1-225, Q85L).
Assay [3] has as its target B2.

Residue numbers refer to the chain shown, from its start. In names and notes the source's numbering stands.

One may read the Kd as the equilibrium constant for the complex coming apart. Higher therefore signals a looser complex.

In turn, B1 registered a Kd in assay [1] above 300 µM.

The molecule B2 registered a Kd in assay [2] above 300 µM.

B3 came in with a Kd in assay [3] of 13 µM.
